Laboratory results as given in the supplement of paper PMC11780869.

Tested on: Bacillus subtilis
Assay: cleaved RNA product abundance (RNA/gDNA barcode ratio) relative to median wild-type variant (ratio to wild type); higher = more accumulation of the downstream cleavage product
Experimental: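 MPRA in B. subtilis. Mutagenized RNase Y cleavage-site regions (9% mutation rate) were inserted into a barcoded reporter mRNA (truncated aprE or tetM). Cells were grown in LB at 37°C to OD600 0.3. The cleaved RNA isoform was gel-purified and its barcodes counted; the RNA:gDNA barcode ratio was normalised to the median wild-type variant, and the median over barcodes is reported per variant. The printed sequence is the variable window only; the reporter flanks are not printed.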

[1] = experiment (reporter, strain, medium): exp 4a: truncated aprE reporter, strain BJT201 with 2% xylose (RNase J1 expressed), cleavage site: cggR-gapA (positions -7 to +36 mutated)
[2] = experiment (reporter, strain, medium): exp 2b: truncated aprE reporter, strain BJT200, cleavage site: cggR-gapA (positions -7 to +36 mutated)
[3] = experiment (reporter, strain, medium): exp 8a: truncated aprE reporter, strain BJT201 with 2% xylose (RNase J1 expressed), cleavage site: glnRA (positions -5 to +31 mutated)

Row | Sequence | cleaved RNA product abundance [1] | cleaved RNA product abundance [2] | further results
1 | ACAGACGAAGGAGCCGCAAAGAAGTTATTAAGGGACGAATAATCAATCAATATAAATATCTCTCACTTATTTAAA | 0.132 | – | –
2 | ACAGACGAAGGAGCCGCAAAGAAGTTATTACAGGATGAATAATCCCTCAATATAAATATCTCTCACTTATTTAAA | 0.165 | – | –
3 | ACAGACGAAGGAGCCGCAAAGAAGTTTTTAAGGGATGAATAATCCCTCAATAAAAATATCTCTCACTTATTTAAA | 0.0781 | – | –
4 | ACAGACGAAGGAGCCGCAAACAAGTTTTTAAGGGATGAATAATCCCTCAATATAAATATCTCTCACTTATTTAAA | 0.304 | 0.289 | –
5 | CGACATGTCCCGCTTCTTTCATTAATCCGTTAGCAACTGATTTGCTATATAGATTTACCTTTTAAGAGGAGGAAT | – | – | cleaved RNA product abundance [3]: 0.979
6 | ACAGACGAAGGAGCCGCAAAGAAGTTATTAAGGGATGAATAATCCATCAATATAAATATTTCTCACTTATTTAAA | 0.286 | – | –
7 | ACAGACGAAGGAGCCGCAAAGAAGTTATTAAGGAATGAATAATCCCTCAATATATATATCTCTCACTTATTTAAA | 0.149 | 0.0862 | –
8 | CGACATGTCCCGCTTCTTTCATTAATCCGTTAGCAATTGTTTAGCTATATACATTTACCTTTTAAGAGGAGGAAT | – | – | cleaved RNA product abundance [3]: 0.468
9 | CGACATGTCCCGCTTCTTTCATTAATCCGTTAGCAACTGTTTTGGTATATACATTTACCTTTTAAGAGGAGGAAT | – | – | cleaved RNA product abundance [3]: 0.237
10 | ACAGACGAAGGAGCCGCAAAGAAATTACTAAGGGATGAATAATCCCTCAATATAAATATCTCTCACTTATTTAAA | 0.247 | – | –
11 | ACAGACGAAGGAGCCGCAAAGAAGTTATTAAGGGATCATTAATCCCTCAATATAAATATCTCTCACTTATTTAAA | 1.08 | – | –
12 | ACAGACGAAGGAGCCGCAACGATGTTATTAAGGGATGAATAATCCCTCAATATAAATATCTCTCACTTATTTAAA | 1.36 | – | –
13 | ACAGACGAAGGAGCCGCAAAGAAGTTATGACGGGATGAATAATCCCTCAATATAAATATCTCTCACTTATTTAAA | 0.844 | – | –
14 | ACAGACGAAGGAGCCGCAAAGAAGTTATTAAGGGATGAATAATACCTCAATATAAACATCTCTCACTTATTTAAA | 0.108 | – | –
15 | CGACATGTCCCGCTTCTTTCATTAATCCGTTAGCAACTGTTTTGTTAAATACATTTACCTTTTAAGAGGAGGAAT | – | – | cleaved RNA product abundance [3]: 0.414
16 | ACAGACGAAGGAGCCGCAAAGAAGTTATTAAGGGATTAATAATCTCTCAATATAAATATCTCTCACTTATTTAAA | – | 0.716 | –
17 | CGACATGTCCCGCTTCTTTCATTAATCCGTTAGCAACAGATTTGCTATATACATTTACCTTTTAAGAGGAGGAAT | – | – | cleaved RNA product abundance [3]: 0.68
18 | ACAGACGAAGGAGCCGCAATGAAGTTATTAAGGGATGAATAATCCCTCTATATAAATATCTCTCACTTATTTAAA | 0.689 | – | –
19 | CGACATGTCCCGCTTCTTTCATTAATCCGTTTGCAACTGTTATGCTATATACATTTACCTTTTAAGAGGAGGAAT | – | – | cleaved RNA product abundance [3]: 0.428
20 | ACAGACGAAGGAGCCGCAATTAAGTTATTAAGGGATGAATAATCCCTCAATATAAATATCTCTCACTTATTTAAA | 0.863 | 0.955 | –
21 | ACAGACGAAGGAGCCGCAAAGATGTTATTAAGGGATGAATAATCCCTCAATATATATATCTCTCACTTATTTAAA | 0.975 | – | –
22 | ACAGACGAAGGAGCCGCAAAGAAATTATTAAGGGATCAATAATCCCTCAATATAAATATCTCTCACTTATTTAAA | – | 0.646 | –
23 | ACAGACGAAGGAGCCGCAAAGAGGTTATTAAGGGATGAATAATCCATCAATATAAATATCTCTCACTTATTTAAA | – | 0.176 | –
24 | CGACATGTCCCGCTTCTTTCATTAATCCGTTAGCAACTGTTTTGCGATATACATTAACCTTTTAAGAGGAGGAAT | – | – | cleaved RNA product abundance [3]: 0.781

Row | Sequence | cleaved RNA product abundance [1] | cleaved RNA product abundance [2] | further results
25 | CGACATGTCCCGCTTCTTTCATTAATCCGTTAGCAACTGTTTTACTATATACAATTACTTTTTAAGAGGAGGAAT | – | – | cleaved RNA product abundance [3]: 0.712
26 | CGACATGTCCCGCTTCTTTCATTAATCCGTCAGAAACTGTTTTGCTATATACATTTACCTTTTAAGAGGAGGAAT | – | – | cleaved RNA product abundance [3]: 0.185
27 | ACAGACGAAGGAGCCGCAAAGAAGTTCTTCAGGGATGAATAATCCCTCAATATAAATATCTCTCACTTATTTAAA | 0.262 | – | –
28 | CGACATGTCCCGCTTCTTTCATTAATCTGTTAGAAACTGTTTTGCTATATACATTTACCTTTTAAGAGGAGGAAT | – | – | cleaved RNA product abundance [3]: 0.269
29 | CGACATGTCCCGCTTCTTTCATTAATCCGTTAGCAACTGTTTTTCTATATACACTTACCTTTTAAGAGGAGGAAT | – | – | cleaved RNA product abundance [3]: 0.721
30 | ACAGACGAAGGAGCCGCAAAGAAGTTATTAAGATATGAATAATCCCTCAATATAAATATCTCTCACTTATTTAAA | 0.115 | 0.0758 | –
31 | ACAGACGAAGGAGCCGCTAAGAAGTTCTTAAGGGATGAATAATCCCTCAATACAAATATCTCTCACTTATTTAAA | 0.0591 | – | –
32 | ACAGACGAAGGAGCCGCAAATAAGTTATTAAGGGATTAATAATCCCTCAATATAAATATCTCTCACTTATTTAAA | 0.881 | 0.863 | –
33 | ACAGACGAAGGAGCCGCAAAGAAGTTATTAAGGTATGAATAATCTCTCAATATAAATATCTCTCACTTATTTAAA | 0.162 | – | –
34 | ACAGACGAAGGAGCCGCAAAGAAGTTATTAAGGGATGAATCATCTCTCAATATAAATATCTCTCACTTATTTAAA | 0.595 | – | –
35 | ACAGACGAAGGAGCCGCAAAGAAGTTATTAACGGATGAAGAATCCCTCAATATAAATATCTCTCACTTATTTAAA | 0.17 | – | –
36 | ACAGACGAAGGAGCCGCATAGAAGTTATTAAGGGATGAATAATCCCTCAATATAAATATCTCTCACTTATTTAAA | 1.01 | 1 | cleaved RNA product abundance (experiment (reporter, strain, medium): exp 6: tetM reporter, strain 168, cleavage site: cggR-gapA (positions -7 to +36 mutated)): 1.06
37 | CGACATGTCCCGCTTCTTTCATTAATCCGTTAGCAACTGTTATGCTAAATACATTTACCTTTTAAGAGGAGGAAT | – | – | cleaved RNA product abundance [3]: 0.111
38 | ACAGACGAAGGAGCCGCAAAGTAGTTATTAAGGGATGAATAATACCTCAATATAAATATCTCTCACTTATTTAAA | 0.176 | 0.155 | –
39 | ACAGACGAAGGAGCCGCAAAGAAGTTATTAAGCGATGAATAATCCCGCAATATAAATATCTCTCACTTATTTAAA | 0.0767 | 0.0603 | –
40 | CGACATGTCCCGCTTCTTTCATTAATCCATTAGCAACTGTTTTGCTACATACATTTACCTTTTAAGAGGAGGAAT | – | – | cleaved RNA product abundance [3]: 0.772
41 | CGACATGTCCCGCTTCTTTCATTAATCAGTTAGCAACTGTTTTGCTATATACTTTTACCTTTTAAGAGGAGGAAT | – | – | cleaved RNA product abundance [3]: 0.343
42 | ACAGACGAAGGAGCCGCAAATAAGTTATTAAGGGATGAATAAACCCTCAATATAAATATCTCTCACTTATTTAAA | 0.39 | – | –
43 | ACAGACGAAGGAGCCGCAAAAAAGTTATTACGGGATGAATAATCCCTCAATATAAATATCTCTCACTTATTTAAA | 0.364 | 0.329 | –
44 | ACAGACGAAGGAGCCGCAAAGAAGTTATTAAGGTATGAATAATCCCTCAATATAAATCTCTCTCACTTATTTAAA | – | 0.0874 | –
45 | ACAGACGAAGGAGCCGCAAAGAAGTTATTAAGCGATGAATAATCCCTCAATAGAAATATCTCTCACTTATTTAAA | 0.0613 | 0.0778 | –
46 | ACAGACGAAGGAGCCGCAAAGAAGTTATTAAGGAATGAATAATCCCTCAATTTAAATATCTCTCACTTATTTAAA | 0.0591 | 0.0901 | –
47 | ACAGACGAAGGAGCCGCAAAGAAGTTATTAAGGGATGAATAATCCATCATTATAAATATCTCTCACTTATTTAAA | – | 0.158 | –
